We go through one substance from US20120266260A1.

Assay [1] has as its target synthetic IgA1 hinge-region glycopeptide linked to BSA with 3 GalNAc residues (HR-GalNAc-BSA) (bovine) (UniProt P02769). The assay is described as follows: ELISA, wells with HR-GalNAc-BSA treated with unlabeled HAA (20 ug/ml); competitor: IgG from cell lines of IgAN patients. For orientation: ELISA stands for enzyme-linked immunosorbent assay.
The target of assay [2] is Gal-deficient IgA1 (Mce) myeloma protein (human) (UniProt P01876). The assay is described as follows: Western blot, membrane pre-incubated with unlabeled HAA (20 ug/ml); competitor: IgG purified from the serum of an IgAN patient; densitometry.

Helix aspersa agglutinin (HAA) had a percent inhibition of IgG binding in assay [1] of 78%. This substance also gave a percent reduction of IgG binding in assay [2] of 66%.
